In article PMC3024538:

Molecular target: HLA A*0201 α chain with β2m, recombinant, biotinylated
Assay: SPR

half-life of the pMHCI complex: 6 h
Substance: Melan-A/MART-1 26-35 peptide […]
